Assay results as given in publication PMC9915745 (ArXiv, 2023).

Molecular target: the molecule itself
Experiment: SEC-MALS

B1: E. coli periplasmic chaperone HdeA, wild type (natural protein)
chain: ADAQKAADNKKPVNSWTCEDFLAVDESFQPTAVGFAEALNNKDKPEDAVLDVQGIATVTPAIVQACTQDKQANFKDKVKGEWDKIKKDM
modifications: native disulfide between Cys18 and Cys66
- stoichiometry N: 2
